# Laboratory results as given in patent publication US20100322948A1, “Bone morphogenetic protein (BMP)-binding domains of proteins of the repulsive guidance molecule (RGM) protein family and functional fragments thereof, and use of same” (ABBOTT GMBH & CO. KG, priority 2007, published 2010).
# B1: Fragment 2 (Fc fusion)
# RGM A fragment fused to Fc: IIFKNFQECVDQKVYQAEMDELPAAFVDGSKNGGDKHGANSLKITEKVSGQHVEIQAKYIGTTIVVR
# notes: also called 218-284-Fc
# B2: Recombinant human BMP-2 (ligand, UniProt P12643 283-396, looked up)
# chain: QAKHKQRKRLKSSCKRHPLYVDFSDVGWNDWIVAPPGYHAFYCHGECPFPLADHLNSTNHAIVQTLVNSVNSKIPKACCVPTELSAISMLYLDENEKVVLKNYQDMVVEGCGCR
# notes: Bought protein; also called rhBMP-2; recombinant h BMP-2
# B3: 47-168-Fc (#786) (Fc fusion)
# chain: PCKILKCNSEFWSATSGSHAPASDDTPEFCAALRSYALCTRRTARTCRGDLAYHSAVHGIEDLMSQHNCSKDGPTSQPRLRTLPPAGDSQERSDSPEICHYEKSFHKHSATPNYTHCGLFGD
# notes: Expressed in HEK293F cells; IgK leader left out; also called fragment 0; not shown: Factor Xa site from the vector; human IgG Fc (hIgG lambda hc 257-Stop)
# B4: #789: 266-335 Fc 257 Stop no att (Fc fusion, human, UniProt Q96B86 266-335, looked up)
# RGM A fragment fused to Fc: SGQHVEIQAKYIGTTIVVRQVGRYLTFAVRMPEEVVNAVEDWDSQGLYLCLRGCPLNQQIDFQAFHTNAE
# notes: fragment; also called Fragment 3
# B5: Recombinant human BMP-4 (ligand, UniProt P12644 293-408, looked up)
# chain: SPKHHSQRARKKNKNCRRHSLYVDFSDVGWNDWIVAPPGYQAFYCHGDCPFPLADHLNSTNHAIVQTLVNSVNSSIPKACCVPTELSAISMLYLDEYDKVVLKNYQEMVVEGCGCR
# notes: Bought protein; also called hBMP-4
# B6: RGMA-Fc: RGM A Fc fusion protein used as comparison for the fragments (protein)
# chain: PCKILKCNSEFWSATSGSHAPASDDTPEFCAALRSYALCTRRTARTCRGDLAYHSAVHGIEDLMSQHNCSKDGPTSQPRLRTLPPAGDSQERSDSPEICHYEKSFHKHSATPNYTHCGLFGDPHLRTFTDRFQTCKVQGAWPLIDNNYLNVQATNTPVLPGSAATATSKLTIIFKNFQECVDQKVYQAEMDELPAAFVDGSKNGGDKHGANSLKITEKVSGQHVEIQAKYIGTTIVVRQVGRYLTFAVRMPEEVVNAVEDWDSQGLYLCLRGCPLNQQIDFQAFHTNAEGTGARRLAAASPAPTAPETFPYETAVAKCKEKLPVEDLYYQACVFDLLTTGDVNFTLAAYYALEDVKMLHSNKDKLHLYERTRDLPG
# modifications: left off: a dimerising Fc or GST
# notes: RGM A Fc fusion protein used as comparison for the fragments
# Tests used:
# [1] = target: B5; assay: ELISA, 218-284-Fc immobilised, BMP-4 titrated, detection with anti-BMP-4 biotin antibody
# Experimental: (§1) The test was conducted according to test method 4, variant B above, with immobilization of the fusion proteins (1 mg/mL).
# [2] = target: B3; assay: ELISA, 47-168-Fc immobilised, BMP-2 titrated, detection with anti-BMP-2 biotin antibody
# Experimental: as §1
# [3] = target: B5; assay: ELISA, BMP-4 coated at 2.5 µg/mL, fragment #786-Fc from 0.5 µg/mL in 1:2 dilutions (triple values), detection anti-human Fc biotin 1:200 and Strep POD 1:5000
# Excerpt: The binding of the fusion proteins was detected using anti-human-antibodies.
# [4] = target: B5; assay: ELISA, 266-335-Fc immobilised, BMP-4 titrated, detection with anti-BMP-4 biotin antibody
# Experimental: as §1
# [5] = target: B3; assay: ELISA, 47-168-Fc immobilised, BMP-4 titrated, detection with anti-BMP-4 biotin antibody
# Experimental: as §1
# [6] = target: T1, BMP-4 (Homo sapiens, UniProt P12644); assay: In vitro interaction test, variant B: immobilized RGMA-Fc fusion proteins, detection of BMP-4 binding
# T1 construct: purchased R&D Systems 314-BM
# T1 sequence (P12644 293-408): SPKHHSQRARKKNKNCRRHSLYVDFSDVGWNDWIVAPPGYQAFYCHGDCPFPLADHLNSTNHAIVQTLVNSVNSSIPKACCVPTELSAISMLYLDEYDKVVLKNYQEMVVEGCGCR
# Experimental: (§2) Test Method 4: In Vitro Interaction Test for Determining the Interaction between RGMA and BMP-2 and -4
# (§3) The interaction tests were carried out as described below:
# (§4) Variant B: Immobilization of Various RGMA-Fc Fusion Proteins and Detection of the Binding of the BMP-2/ or -4 Protein
# (§5) Immunoplate Cert. MaxiSorp F96 (Nunc, 439454)
# (§6) RGMA-Fc fragments • Volume used: 2.5 μg/mL in Na2CO3; addition: 50 μL per well • 1 hour at 37° C. in damp chamber
# (§7) 3. Washing step: • Wash 3× with PBS/0.02% Tween 20
# (§8) 4. Blocking: • 3% BSA in PBS/0.02% Tween, 1 hour at 37° C. in damp chamber • Addition : 200 μL per well, incubation: 1 hour at 37° C. in damp chamber
# (§9) Recombinant human BMP-2, Catalog No.: 355-BM, Company: R&D Systems; or
# (§10) Recombinant human RGM A, R&D Systems; Prod. #2495-RM,
# (§11) recombinant human BMP-4, Catalog No.: 314-BM, Company: R&D Systems;
# (§12) Concentration in each case: 10 μg/mL
# (§13) Dilution steps: in each case 1:2 with PBS/0.02% Tween 20
# (§14) 6. Washing step: • Wash 3× with PBS/0.02% Tween 20
# (§15) Anti-human BMP-4 biotin antibody; Catalog No.: BAM7572, 1:200 in 1% BSA-PBS-T
# (§16) 8. Washing step: • Wash 3× with PBS/0.02% Tween 20
# 10. Washing step: • Wash 3× with PBS/0.02% Tween 20
# ImmunoPure TMB substrate kit; (Pierce, #34021) • Development period: approximately 1-30 minutes • 1:1 mixture of […]; addition: 50 μL per well
# 12. Stop: • 2.5 M H2SO4; addition: 50 μL per well
# The test was conducted according to test method 4, variant B above, with immobilization of the fusion proteins (1 mg/mL). The binding of BMP-4 was detected using anti-BMP-4 biotin antibodies.
# (§17) The test was conducted according to test method 4, variant B above, with immobilization of the fusion proteins (1 mg/mL). The binding of BMP-4 and -2 was detected using anti-BMP-4 and anti-BMP-2 biotin antibodies, respectively.
# [7] = target: T2, BMP-2 (Homo sapiens, UniProt P12643); assay: In vitro interaction test, variant B: immobilized RGMA-Fc fusion proteins, detection of BMP-2 binding; settings: Working Example 2, FIG. 4, anti-BMP-2 biotin antibodies
# T2 construct: purchased R&D Systems 355-BM; host or cells: CHO cells (said of #355-BM in the BRE-Luc section)
# T2 sequence (P12643 283-396): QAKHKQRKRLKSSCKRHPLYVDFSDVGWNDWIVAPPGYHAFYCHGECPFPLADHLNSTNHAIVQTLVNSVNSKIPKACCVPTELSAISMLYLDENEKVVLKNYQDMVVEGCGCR
# Experimental: as §2, §3, §4, §5, §6, §7, §8, §9, §10, §11, §12, §13, §14, §15, §16
# 10. Washing step: • Wash 3× with PBS/0.02% Tween 20 […]
# as §17
molecule,measurement,setting,value
B1,binding result,[1],no binding
B2,binding result,[2],binds
B3,EC50 (read off the curve),[3],~5 ng/mL
B4,binding result,[4],no binding
B5,binding result,[5],binds
B6,binding of BMP-4,"[6]; Working Example 1, FIG. 3, anti-BMP-4 biotin antibodies",Significant binding
same,binding of BMP-4,"[6]; Working Example 2, FIG. 4, anti-BMP-4 biotin antibodies",Significant binding
same,binding of BMP-2,[7],Significant binding
